Reference: publication PMC9095878
Values joined by “and” are separate entries in the source; they are usually repeats but may differ in a detail not shown here. Equal entries are not always repeated.

Molecular target: N-terminal domain of mouse gasdermin-A3 released by TEV cleavage (mGSDMA3^Nterm) (mouse) (UniProt Q5Y4Y6)
Assay: atomic force microscopy; supported lipid membranes (E. coli polar lipid extract) on mica incubated 3 h at 37 °C with 1.5 µM mGSDMA3 pre-cleaved with 0.4 µM TEV, rinsed, imaged by contact mode or FD-based AFM at room temperature in 50 mM NaCl, 0.1 mM EDTA, 0.1 mM TCEP, 20 mM Hepes, pH 7.4; subunits of ring-shaped oligomers counted from rotational power spectra

stoichiometry N: 18 to 36 (2×) and 30
Substance: N-terminal domain of mouse gasdermin-A3 released by TEV cleavage (mGSDMA3^Nterm) (from UniProt Q5Y4Y6 1-237) (domain or fragment)
